Three molecules from paper doi:10.1101/2025.01.09.632221 (bioRxiv, 2025) can be followed below.

Data set [1] concerns the target sHcp-His6 (Bacteroides fragilis NCTC9343). Description: SEC.
The target is the same in data set [2]. Description: SDS-PAGE.
Data set [3] concerns the target T1, Hcp2-His6 (Bacteroides fragilis NCTC9343, UniProt A0A380Z0E1 1-135).
T1 sequence (looked up): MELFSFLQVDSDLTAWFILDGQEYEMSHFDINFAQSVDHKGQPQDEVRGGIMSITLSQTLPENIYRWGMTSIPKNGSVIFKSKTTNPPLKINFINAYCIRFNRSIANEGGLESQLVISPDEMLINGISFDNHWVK
Briefly: pull-down.

Data set [4] concerns the molecule itself. Description: crystal structure.

As to sHcp-His6 (natural protein), the stoichiometry N in data set [1] was 6; in data set [2], 3.

B1: Hcp1, untagged, co-expressed in E. coli BL21(DE3) (natural protein, Bacteroides fragilis NCTC9343, UniProt Q5LDT5 1-142, looked up)
chain: MFGHKSFLRIGALGDSSISGLYKDSYELENCHFSFNQGTNTDGKPQTDVRGGTLYLTYAGLPQDDMLRWILNSKKYEDGAIVICDDSDEPLEKILFEQAACTGLNIEYTQKGKAYIHTKIILQVRKIKVGETTFENRWTINE
Regarding B1, in data set [3], the “stoichiometry N” value was 2 Hcp1 per Hcp2 (printed as the ratio 4:2).

B2: C-terminal 6His-tagged Se-Met sHcp protein (natural protein, Bacteroides fragilis NCTC9343)
chain: MAFRATLSFAGKEFDVLDCTYSLKRDVDSKGRPSSNIYGGQIRLHVESTDDTSILENMTNQFKPHSGSIVFKKGDEEAKMKELTWENGYITEFTENIDIVGSQPMTITFVVSAQVIKIGGAQFEQNWPK
modifications: selenomethionine in place of methionine
As for B2, the “stoichiometry N” value in data set [4] was 6.
